Reference: the supplement of paper PMC11246515
± gives the standard deviation of the averaged measurements.

Test: total protein half-life in vivo (active degradation + dilution); higher = more stable protein
[1] = E. coli NCM3722 delta-clpP delta-lon delta-hslV, growth: N-lim chemostat, doubling time 6 h
[2] = E. coli NCM3722 delta-clpP, growth: N-lim chemostat, doubling time 6 h
[3] = E. coli NCM3722 delta-hslV, growth: N-lim chemostat, doubling time 6 h
[4] = E. coli NCM3722 delta-lon, growth: N-lim chemostat, doubling time 6 h
[5] = E. coli NCM3722 delta-smpB, growth: N-lim chemostat, doubling time 6 h
[6] = wild type E. coli NCM3722, growth: C-lim chemostat, doubling time 3 h
[7] = wild type E. coli NCM3722, growth: C-lim chemostat, doubling time 6 h
[8] = wild type E. coli NCM3722, growth: C-lim chemostat, doubling time 12 h
[9] = wild type E. coli NCM3722, growth: N-lim chemostat, doubling time 6 h
[10] = wild type E. coli NCM3722, growth: N-lim chemostat, doubling time 12 h
[11] = wild type E. coli NCM3722, growth: P-lim chemostat, doubling time 6 h
[12] = wild type E. coli NCM3722, growth: P-lim chemostat, doubling time 12 h

Sequence	total protein half-life in vivo [1] [h]	total protein half-life in vivo [2] [h]	total protein half-life in vivo [3] [h]	total protein half-life in vivo [4] [h]	total protein half-life in vivo [5] [h]	total protein half-life in vivo [6] [h]	total protein half-life in vivo [7] [h]	total protein half-life in vivo [8] [h]	total protein half-life in vivo [9] [h]	total protein half-life in vivo [10] [h]	total protein half-life in vivo [11] [h]	total protein half-life in vivo [12] [h]
MFRGATLVNLDSKGRLSVPTRYREQLLENAAGQMVCTIDIYHPCLLLYPLPEWEIIEQKLSRLSSMNPVERRVQRLLLGHASECQMDGAGRLLIAPVLRQHAGLTKEVMLVGQFNKFELWDETTWHQQVKEDIDAEQLATGDLSERLQDLSL	7.01 ± 0.38	6.48 ± 0.5	6.33 ± 0.068	6.98 ± 0.57	5.69 ± 0.38	3.22 ± 0.08	6.14 ± 0.43	12.19 ± 0.11	5.98 ± 0.57	12.9 ± 0.16	6.8 ± 0.66	14.04 ± 0.07
MFRLNPFVRVGLCLSAISCAWPVLAVDDDGETMVVTASSVEQNLKDAPASISVITQEDLQRKPVQNLKDVLKEVPGVQLTNEGDNRKGVSIRGLDSSYTLILVDGKRVNSRNAVFRHNDFDLNWIPVDSIERIEVVRGPMSSLYGSDALGGVVNIITKKIGQKWSGTVTVDTTIQEHRDRGDTYNGQFFTSGPLIDGVLGMKAYGSLAKREKDDPQNSTTTDTGETPRIEGFSSRDGNVEFAWTPNQNHDFTAGYGFDRQDRDSDSLDKNRLERQNYSVSHNGRWDYGTSELKYYGEKVENKNPGNSSPITSESNTVDGKYTLPLTAINQFLTVGGEWRHDKLSDAVNLTGGTSSKTSASQYALFVEDEWRIFEPLALTTGVRMDDHETYGEHWSPRAYLVYNATDTVTVKGGWATAFKAPSLLQLSPDWTSNSCRGACKIVGSPDLKPETSESWELGLYYMGEEGWLEGVESSVTVFRNDVKDRISISRTSDVNAAPGYQNFVGFETGANGRRIPVFSYYNVNKARIQGVETELKIPFNDEWKLSINYTYNDGRDVSNGENKPLSDLPFHTANGTLDWKPLALEDWSFYVSGHYTGQKRADSATAKTPGGYTIWNTGAAWQVTKDVKLRAGVLNLGDKDLSRDDYSYNEDGRRYFMAVDYRF						3.86 ± 0.058				> 16		> 16
MFSIQQPLLVFSDLDGTLLDSHSYDWQPAAPWLTRLREANVPVILCSSKTSAEMLYLQKTLGLQGLPLIAENGAVIQLAEQWQEIDGFPRIISGISHGEISLVLNTLREKEHFKFTTFDDVDDATIAEWTGLSRSQAALTQLHEASVTLIWRDSDERMAQFTARLNELGLQFMQGARFWHVLDASAGKDQAANWIIATYQQLSGKRPTTLGLGDGPNDAPLLEVMDYAVIVKGLNREGVHLHDEDPARVWRTQREGPEGWREGLDHFFSAR	4.98 ± 0.28	4.08 ± 0.42	4.17 ± 0.055	4.3 ± 0.26	3.73 ± 0.22	2.87 ± 0.076	5.25 ± 0.12	8.64 ± 0.059	4.167 ± 0.036	6.751 ± 0.019	5.43 ± 0.42	10.5 ± 0.14
MFTFIKKVIKTGTATSSYPLEPIAVDKNFRGKPEQNPQQCIGCAACVNACPSNALTVETDLATGELAWEFNLGHCIFCGRCEEVCPTAAIKLSQEYELAVWKKEDFLQQSRFALCNCRVCNRPFAVQKEIDYAIALLKHNGDSRAENHRESFETCPECKRQKCLVPSDRIELTRHMKEAI	2.95											
MFTKRHRITLLFNANKAYDRQVVEGVGEYLQASQSEWDIFIEEDFRARIDKIKDWLGDGVIADFDDKQIEQALADVDVPIVGVGGSYHLAESYPPVHYIATDNYALVESAFLHLKEKGVNRFAFYGLPESSGKRWATEREYAFRQLVAEEKYRGVVYQGLETAPENWQHAQNRLADWLQTLPPQTGIIAVTDARARHILQVCEHLHIPVPEKLCVIGIDNEELTRYLSRVALSSVAQGARQMGYQAAKLLHRLLDKEEMPLQRILVPPVRVIERRSTDYRSLTDPAVIQAMHYIRNHACKGIKVDQVLDAVGISRSNLEKRFKEEVGETIHAMIHAEKLEKARSLLISTTLSINEISQMCGYPSLQYFYSVFKKAYDTTPKEYRDVNSEVML [P0ACI3]	5.66 ± 0.54	5.86 ± 0.86		3.81 ± 0.22	3.05 ± 0.42	2.89 ± 0.14	5.27 ± 0.069	9.26 ± 0.14	3.78 ± 0.56	4.44 ± 1.1	5.4 ± 0.33	9.78 ± 0.94
MFTRVANFCRKVLSREESEAEQAVARPQVTVIPREQHAISRKDISENALKVMYRLNKAGYEAWLVGGGVRDLLLGKKPKDFDVTTNATPEQVRKLFRNCRLVGRRFRLAHVMFGPEIIEVATFRGHHEGNVSDRTTSQRGQNGMLLRDNIFGSIEEDAQRRDFTINSLYYSVADFTVRDYVGGMKDLKDGVIRLIGNPETRYREDPVRMLRAVRFAAKLGMRISPETAEPIPRLATLLNDIPPARLFEESLKLLQAGYGYETYKLLCEYHLFQPLFPTITRYFTENGDSPMERIIEQVLKNTDTRIHNDMRVNPAFLFAAMFWYPLLETAQKIAQESGLTYHDAFALAMNDVLDEACRSLAIPKRLTTLTRDIWQLQLRMSRRQGKRAWKLLEHPKFRAAYDLLALRAEVERNAELQRLVKWWGEFQVSAPPDQKGMLNELDEEPSPRRRTRRPRKRAPRREGTA [P0ABF1]	6.05 ± 0.76	5.89 ± 0.71	3.67 ± 0.17	3.728 ± 0.025	3.45 ± 0.18	2.324 ± 0.019	4.37 ± 0.12	6.58 ± 0.41	3.84 ± 0.079	6.19 ± 0.3	3.92 ± 0.57	7.24 ± 0.26
MFVKLLRSVAIGLIVGAILLVAMPSLRSLNPLSTPQFDSTDETPASYNLAVRRAAPAVVNVYNRGLNTNSHNQLEIRTLGSGVIMDQRGYIITNKHVINDADQIIVALQDGRVFEALLVGSDSLTDLAVLKINATGGLPTIPINARRVPHIGDVVLAIGNPYNLGQTITQGIISATGRIGLNPTGRQNFLQTDASINHGNSGGALVNSLGELMGINTLSFDKSNDGETPEGIGFAIPFQLATKIMDKLIRDGRVIRGYIGIGGREIAPLHAQGGGIDQLQGIVVNEVSPDGPAANAGIQVNDLIISVDNKPAISALETMDQVAEIRPGSVIPVVVMRDDKQLTLQVTIQEYPATN [P0AEE3]	7.33 ± 0.89		5.79 ± 0.39	5.86 ± 0.29	6.21 ± 0.68	3.25 ± 0.23	5.91 ± 0.28	11.3 ± 1.2	5.98 ± 0.72	13.8 ± 2.3	7.16 ± 0.27	12.1 ± 0.81
